Source: patent publication US20210333284A1, “METHODS AND MATERIALS FOR LARGE-SCALE ASSESSMENT OF LIGAND BINDING SELECTIVITY OF G-QUADRUPLEX RECOGNITION USING CUSTOM G4 MICROARRAYS” (Purdue Research Foundation, priority 2020, published 2021)

Test system: MYC Pu22 G4 variants
Assay: G4 microarray direct binding to loop length, loop sequence and tail variants
Design: species or system human
Excerpt: Three Agilent DNA microarrays (TABLE 1) were designed, each with four identical sectors that contain ca.177,440 ssDNA 60-mers to examine G4-binding specificity. Arrays were designed with 9-73 replicates of each unique sequence to ensure statistical significance (TABLE 1). Each microarray contains different sets of G4 variants designed to examine several sequence parameters that affect G4 formation and binding specificity such as loop length (Design 1), loop sequence (Design 2), tail sequence (Design 2), and single nucleotide variants of six known G4s (Design 3). […]
The effect of specific sequence parameters on molecule binding was examined. […] Distinct patterns within the best-bound sequences were identified, including flexibility for the nucleotides in the central loop of the G4 and an overall preference for thymines in loops (FIG. 3F), consistent with previous findings that T nucleotides in loops have a greater propensity for folding into G4s than other nucleotides.^39 Different tail sequence ([…] (SEQ ID NO: 3)) preferences were found for all measured molecules (FIG. 3G), further underscoring the utility of the platform in identifying sequence features important for G4 binding and highlighting tail sequences in determining binding specificity. […]

| Molecule | correlation (R) of loop length of the MYC Pu22 G4 vs binding intensity (loop length variants) | tail (flanking) sequence preference in direct binding (NNGGGTGGGGAGGGTGGGNN variants, no competitor) |
| --- | --- | --- |
| FANCJ: GST-tagged human BRCA1-binding helicase-like protein / Fanconi anemia group J protein (protein, listed as Homo sapiens, GST tag) MSSMWSEYTIGGVKIYFPYKAYPSQLAMMNSILRGLNSKQHCLLESPTGSGKSLALLCSALAWQQSLSGKPADEGVSEKAEVQLSCCCACHSKDFTNNDMNQGTSRHFNYPSTPPSERNGTSSTCQDSPEKTTLAAKLSAKKQASIYRDENDDFQVEKKRIRPLETTQQIRKRHCFGTEVHNLDAKVDSGKTVKLNSPLEKINSFSPQKPPGHCSRCCCSTKQGNSQESSNTIKKDHTGKSKIPKIYFGTRTHKQIAQITRELRRTAYSGVPMTILSSRDHTCVHPEVVGNFNRNEKCMELLDGKNGKSCYFYHGVHKISDQHTLQTFQGMCKAWDIEELVSLGKKLKACPYYTARELIQDADIIFCPYNYLLDAQIRESMDLNLKEQVVILDEAHNIEDCARESASYSVTEVQLRFARDELDSMVNNNIRKKDHEPLRAVCCSLINWLEANAEYLVERDYESACKIWSGNEMLLTLHKMGITTATFPILQGHFSAVLQKEEKISPIYGKEEAREVPVISASTQIMLKGLFMVLDYLFRQNSRFADDYKIAIQQTYSWTNQIDISDKNGLLVLPKNKKRSRQKTAVHVLNFWCLNPAVAFSDINGKVQTIVLTSGTLSPMKSFSSELGVTFTIQLEANHIIKNSQVWVGTIGSGPKGRNLCATFQNTETFEFQDEVGALLLSVCQTVSQGILCFLPSYKLLEKLKERWLSTGLWHNLELVKTVIVEPQGGEKTNFDELLQVYYDAIKYKGEKDGALLVAVCRGKVSEGLDFSDDNARAVITIGIPFPNVKDLQVELKRQYNDHHSKLRGLLPGRQWYEIQAYRALNQALGRCIRHRNDWGALILVDDRFRNNPSRYISGLSKWVRQQIQHHSTFESALESLAEFSKKHQKVLNVSIKDRTNIQDNESTLEVTSLKYSTPPYLLEAASHLSPENFVEDEAKICVQELQCPKIITKNSPLPSSIISRKEKNDPVFLEEAGKAEKIVISRSTSPTFNKQTKRVSWSSFNSLGQYFTGKIPKATPELGSSENSASSPPRFKTEKMESKTVLPFTDKCESSNLTVNTSFGSCPQSETIISSLKIDATLTRKNHSEHPLCSEEALDPDIELSLVSEEDKQSTSNRDFETEAEDESIYFTPELYDPEDTDEEKNDLAETDRGNRLANNSDCILAKDLFEIRTIKEVDSAREVKAEDCIDTKLNGILHIEESKIDDIDGNVKTTWINELELGKTHEIEIKNFKPSPSKNKGMFPGFK | strongest effect | – |
| DHX36: GST-tagged human DHX36/G4R1/MLEL1 helicase (protein, listed as Homo sapiens, GST tag, GST-tagged human DHX36/G4R1/MLEL1 helicase) MSYDYHQNWGRDGGPRSSGGGYGGGPAGGHGGNRGSGGGGGGGGGGRGGRGRHPGHLKGREIGMWYAKKQGQKNKEAERQERAVVHMDERREEQIVQLLNSVQAKNDKESEAQISWFAPEDHGYGTEVSTKNTPCSENKLDIQEKKLINQEKKMFRIRNRSYIDRDSEYLLQENEPDGTLDQKLLEDLQKKKNDLRYIEMQHFREKLPSYGMQKELVNLIDNHQVTVISGETGCGKTTQVTQFILDNYIERGKGSACRIVCTQPRRISAISVAERVAAERAESCGSGNSTGYQIRLQSRLPRKQGSILYCTTGIILQWLQSDPYLSSVSHIVLDEIHERNLQSDVLMTVVKDLLNFRSDLKVILMSATLNAEKFSEYFGNCPMIHIPGFTFPVVEYLLEDVIEKIRYVPEQKEHRSQFKRGFMQGHVNRQEKEEKEAIYKERWPDYVRELRRRYSASTVDVIEMMEDDKVDLNLIVALIRYIVLEEEDGAILVFLPGWDNISTLHDLLMSQVMFKSDKFLIIPLHSLMPTVNQTQVFKRTPPGVRKIVIATNIAETSITIDDVVYVIDGGKIKETHFDTQNNISTMSAEWVSKANAKQRKGRAGRVQPGHCYHLYNGLRASLLDDYQLPEILRTPLEELCLQIKILRLGGIAYFLSRLMDPPSNEAVLLSIRHLMELNALDKQEELTPLGVHLARLPVEPHIGKMILFGALFCCLDPVLTIAASLSFKDPFVIPLGKEKIADARRKELAKDTRSDHLTVVNAFEGWEEARRRGFRYEKDYCWEYFLSSNTLQMLHNMKGQFAEHLLGAGFVSSRNPKDPESNINSDNEKIIKAVICAGLYPKVAKIRLNLGKKRKMVKVYTKTDGLVAVHPKSVNVEQTDFHYNWLIYHLKMRTSSIYLYDCTEVSPYCLLFFGGDISIQKDNDQETIAVDEWIVFQSPARIAHLVKELRKELDILLQEKIESPHPVDWNDTKSRDCAVLSAIIDLIKTQEKATPRNFPPRFQDGYYS | – | preferentially binds MYC22 G4 variants containing pyrimidines (C/T) at the 5′ end of the G4 |
